Target: T1, Cyclin Y-Flag (human, UniProt Q8ND76-1 1-341)
T1 construct: Cyclin Y, human, isoform 1 (CCNYiso1 cDNA clone in pcDNA3-FLAG); In cells partly phosphorylated at S326 (more after AICAR/A769662) and at S336; also called Cyclin Y-Flag-wt; wild-type Cyclin Y; source: HeLa or U2OS, transfected, in lysate
Experiment: co-IP; HeLa cells transfected with Cyclin Y-Flag, with or without GFP-tagged CDK; with or without 0.5 mM AICAR/50 µM A769662 for 1 h; lysate in Frackelton buffer, anti-FLAG M2 beads 2 h at 4 °C, three washes, immunoblot
Conditions: partners not purified

T1 sequence (Q8ND76 whole entry, canonical isoform): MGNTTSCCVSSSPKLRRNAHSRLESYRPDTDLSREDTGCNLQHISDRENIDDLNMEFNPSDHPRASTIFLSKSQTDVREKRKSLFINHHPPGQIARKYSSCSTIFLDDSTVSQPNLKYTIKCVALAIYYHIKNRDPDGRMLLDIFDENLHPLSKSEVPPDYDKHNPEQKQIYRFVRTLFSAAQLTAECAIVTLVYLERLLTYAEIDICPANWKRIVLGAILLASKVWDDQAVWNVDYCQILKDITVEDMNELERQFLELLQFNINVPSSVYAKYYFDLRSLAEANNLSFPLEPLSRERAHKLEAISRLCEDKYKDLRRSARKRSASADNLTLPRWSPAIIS

B1: GFP-CDK16 (enzyme)
chain: not shown
notes: Cyclin-dependent kinase 16 (CDK16), human, isoform 1; also called GFP-CDK16-wt; PCTAIRE1; source: HeLa, transfected, in lysate
In the case of B1, the “fold change of co-immunoprecipitated CDK16 with AICAR/A769662 against untreated” value is reported as 2 fold.
